Data published in the supplement of paper PMC12764529.
± gives the half width of the 95% confidence interval.

Key:
[1] = folding stability dG unfold (combined trypsin and chymotrypsin); higher = more stable
How it was run: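 Mini-proteins designed to be under 80 residues and free of cysteine were carried in a PA-tagged cDNA display construct and digested with trypsin and with chymotrypsin. Each protease was applied at 11 threefold-diluted concentrations, alongside a no-protease condition, before sequencing. K50 came from Bayesian fitting of the sequencing counts, and unfolding free energy was obtained by comparing it with a sequence-predicted unfolded-state K50 and a shared folded-state K50, for each protease separately or for both together. Designs were retained only if their AlphaFold2 dimer inter-PAE exceeded 15.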

[2] = folding stability dG unfold from trypsin proteolysis; higher = more stable
Description: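 Folding stability of de novo designed mini-proteins (<80 aa, no Cys; designed by TrROS, TrMRF, ProteinMPNN and the joint model) was measured by cDNA display proteolysis with trypsin and chymotrypsin. Each protease was used at 11 concentrations in a threefold dilution series plus a no-protease condition. K50 was inferred by Bayesian fitting of sequencing counts, and dG unfold was derived against a sequence-predicted unfolded-state K50 (Tsuboyama et al. method). Sequences shown include variable-length N-terminal GS-type padding (SAGGSAGG...) inside a display construct carrying a PA tag. Rows were kept only if the AF2 dimer inter-PAE was >15, to exclude likely homo-oligomers.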

SAGGSAGGSAGGEESRRVTVTETVYPVYPGVGIIRVTRTVTTPDATTTSTTLVFVPPGLPSAGGSAGGSAGG [r17_465_JUSTAS]
folding stability dG unfold [1]: < -1 kcal/mol | folding stability dG unfold [2]: -0.433 ± 0.24 kcal/mol

SAGGSAGGSAGGEILIFDDNGKRIIVIPIPPENRYRVVVIHENTGIPEVKEAKLEEVLSSAGGSAGGSAGGS [r10_482_TrMRF]
folding stability dG unfold [1]: 0.104 ± 0.28 kcal/mol | folding stability dG unfold [2]: 0.92 ± 0.055 kcal/mol

SAGGSAGGSAGGEPVSFLVKTPEDRWYPAVAIPETGEVLVEVPNEVRVLPADAEFEVSPASAGGSAGGSAGG [r7_434_TrMRF]
folding stability dG unfold [1]: < -1 kcal/mol | folding stability dG unfold [2]: -0.0127 ± 0.11 kcal/mol

SAGGSAGGSAGGETVVEEDPAAGTTVVTYHEPLPTPSTRENVTTLTHDPSSSAATTTESSAGGSAGGSAGGS [r10_1041_JUSTAS]
folding stability dG unfold [1]: < -1 kcal/mol | folding stability dG unfold [2]: -1.14 ± 0.27 kcal/mol

SAGGSAGGSAGGGENVTTEEKVLEVSYDPSKNSYSTLVKVTVKYPNGTTEEFEVVEEKLSAGGSAGGSAGGS [r10_1214_JUSTAS]
folding stability dG unfold [1]: -0.0354 ± 0.21 kcal/mol | folding stability dG unfold [2]: 0.334 ± 0.042 kcal/mol

SAGGSAGGSAGGGKDVPVIAVPAGDEEAAEEFARRLVAELERRTGKPAGDIPVDFVEVESAGGSAGGSAGGS [r10_1216_TrMRF]
folding stability dG unfold [1]: -0.886 ± 0.84 kcal/mol | folding stability dG unfold [2]: -0.243 ± 0.2 kcal/mol

SAGGSAGGSAGGGMKVVIPKEEAEKKGLTEAKLKEIEEKLKAKGIKVEIKLISSEEPELLSAGGSAGGSAGG [r7_972_JUSTAS]
folding stability dG unfold [1]: < -1 kcal/mol | folding stability dG unfold [2]: 0.136 ± 0.12 kcal/mol

SAGGSAGGSAGGGMTVVPTLEFFPGTRLVVRPVVVRDAEGRVVEVEPEVTPLPPPTLSLLSAGGSAGGSAGG [r7_135_JUSTAS]
folding stability dG unfold [1]: < -1 kcal/mol | folding stability dG unfold [2]: -0.353 ± 0.17 kcal/mol

SAGGSAGGSAGGGSSLVDPEGKPLPPRPEVVTTTGSYYSSLPGDGYYHLEEPVVEPVYPESAGGSAGGSAGG [r7_572_JUSTAS]
folding stability dG unfold [1]: -0.198 ± 0.14 kcal/mol | folding stability dG unfold [2]: 0.339 ± 0.051 kcal/mol

SAGGSAGGSAGGKKTIWIPVKIEPVPDGVRIKFPDGNPIIIPPNHKVEHTPGWMRITLDSAGGSAGGSAGGS [r10_305_TrROS]
folding stability dG unfold [1]: -0.908 ± 0.86 kcal/mol | folding stability dG unfold [2]: -0.293 ± 0.18 kcal/mol

SAGGSAGGSAGGKPKITITQEQHPNGMHRVNVRNPNGKPIGEVPFDSPQQLEEAKEFLLDSAGGSAGGSAGG [r7_476_TrROS]
folding stability dG unfold [1]: < -1 kcal/mol | folding stability dG unfold [2]: -0.608 ± 0.3 kcal/mol

SAGGSAGGSAGGKVLVRFPTGEVPEVVEIDVPFEAGDPEKAKEIADELLAKGAEEVVLEDSAGGSAGGSAGG [r11_196_TrMRF]
folding stability dG unfold [1]: -0.328 ± 0.35 kcal/mol | folding stability dG unfold [2]: 0.117 ± 0.056 kcal/mol

SAGGSAGGSAGGMEKKLTLVTTRTPEGGSETILVDDSDPEKVRAELEEAGWTITETTSSSAGGSAGGSAGGS [r10_882_JUSTAS]
folding stability dG unfold [1]: < -1 kcal/mol | folding stability dG unfold [2]: -0.793 ± 0.95 kcal/mol

SAGGSAGGSAGGMENGKIEIYKKEKDTFIAKINNGDKVIIIEKIKSIEELKEALIELGYGSAGGSAGGSAGG [r7_91_TrMRF]
folding stability dG unfold [1]: 0.136 ± 0.17 kcal/mol | folding stability dG unfold [2]: 0.527 ± 0.029 kcal/mol

SAGGSAGGSAGGMIEIEVEKEEEVKELAEKFGFKVEAEKIEDGKIIAKIEFIPEEELKKSAGGSAGGSAGGS [r10_218_TrMRF]
folding stability dG unfold [1]: < -1 kcal/mol | folding stability dG unfold [2]: -0.839 ± 0.24 kcal/mol

SAGGSAGGSAGGMKPGEPVEIKIPVPGNGKKIPIEIPVGMPPEQARKFAKEIAEELEKNHSAGGSAGGSAGG [r7_957_TrROS]
folding stability dG unfold [1]: < -1 kcal/mol | folding stability dG unfold [2]: -0.916 ± 0.2 kcal/mol

SAGGSAGGSAGGMPVEVTEVASVTTLPNGTTKITIKTPTGTVTFDDPSKIPSSILKLLSSAGGSAGGSAGGS [r10_748_JUSTAS]
folding stability dG unfold [1]: 0.211 ± 0.1 kcal/mol | folding stability dG unfold [2]: 0.703 ± 0.014 kcal/mol

SAGGSAGGSAGGMPVVVINTPSEEEAEKEKAKLEEDPEYKDGPINFIYIPPGTLPENVPLSAGGSAGGSAGG [r7_976_JUSTAS]
folding stability dG unfold [1]: < -1 kcal/mol | folding stability dG unfold [2]: 0.286 ± 0.072 kcal/mol

SAGGSAGGSAGGMTETLDFNGEKVVVTELPPTNTYQVTTTTPGTGVPTTTAARKEEVLTSAGGSAGGSAGGS [r10_482_JUSTAS]
folding stability dG unfold [1]: -0.177 ± 0.28 kcal/mol | folding stability dG unfold [2]: 0.443 ± 0.045 kcal/mol

SAGGSAGGSAGGMTITLEFTTEEEVEAYAKEIGATKVEVTREKTETPEERIKATIEKPGSAGGSAGGSAGGS [r10_494_JUSTAS]
folding stability dG unfold [1]: < -1 kcal/mol | folding stability dG unfold [2]: -0.365 ± 0.74 kcal/mol

SAGGSAGGSAGGMVVTVKVGDETIEIDTETGTATVTPPATGTTTTVPASEVEPITPELLSAGGSAGGSAGGS [r10_709_JUSTAS]
folding stability dG unfold [1]: 0.123 ± 0.065 kcal/mol | folding stability dG unfold [2]: 0.945 ± 0.076 kcal/mol
